B1: anti-GRP78 antibody clone B4 (antibody, IgG1, V domains shown)
VH: QVRLQESGPGLVKPSQTLSLTCTVSGGSISSGGYYWSWIRQHPGKGLEWIGYIYYSGSTYYNPSLESRVTISVDTSKNQFSLKLSSVTAADTAVYYCARYSSIDAFEIWGQGTMVTVSS
VL: SYVLTQPPSVSVAPGKTATITCGGDDIGSKSVHWYQQKPGQAPVLVVYDDGDRPSGIPERFSGSNSGNTATLAISRVEAGDEADYYCQVWDSSSDQYVFGSGTKLTVL
notes: Fully human mAb formatted as full-length IgG1; also called B4 mAb
B2: anti-GRP78 antibody clone F6 (antibody, IgG1, V domains shown)
VH: QVQLQQSGPGLVKPPQTLSLTCAISGDSVSSNSAAWNWIRQSPSRGLEWLGRTYYRSKWYNDYAVSVKSRITINPDTSKNQFSLQLNSVTPEDTAVYYCARDPYYYDSSGYYYFDAFDIWGQGTMVTVSS
VL: SYELTQPHSVSVAPGQTARITCGGDNIGSKSVHWYQQRPGQAPVLVVYDDSDRPSGIPERFSGSNSENTATLTISGVEAGDEADYYCQVWDSTSHHVVFGGGTKLTVL
notes: Fully human mAb formatted as full-length IgG1; also called F6 mAb

Columns and labels:
Assay in all cases: alanine scan, high-throughput flow cytometry
[1] = biological target: T1, GRP78 alanine scanning variant E329A (human, UniProt P11021 19-654)
T1 construct: Member of the alanine scanning library of GRP78
T1 sequence (P11021 19-654 E329A limits assumed): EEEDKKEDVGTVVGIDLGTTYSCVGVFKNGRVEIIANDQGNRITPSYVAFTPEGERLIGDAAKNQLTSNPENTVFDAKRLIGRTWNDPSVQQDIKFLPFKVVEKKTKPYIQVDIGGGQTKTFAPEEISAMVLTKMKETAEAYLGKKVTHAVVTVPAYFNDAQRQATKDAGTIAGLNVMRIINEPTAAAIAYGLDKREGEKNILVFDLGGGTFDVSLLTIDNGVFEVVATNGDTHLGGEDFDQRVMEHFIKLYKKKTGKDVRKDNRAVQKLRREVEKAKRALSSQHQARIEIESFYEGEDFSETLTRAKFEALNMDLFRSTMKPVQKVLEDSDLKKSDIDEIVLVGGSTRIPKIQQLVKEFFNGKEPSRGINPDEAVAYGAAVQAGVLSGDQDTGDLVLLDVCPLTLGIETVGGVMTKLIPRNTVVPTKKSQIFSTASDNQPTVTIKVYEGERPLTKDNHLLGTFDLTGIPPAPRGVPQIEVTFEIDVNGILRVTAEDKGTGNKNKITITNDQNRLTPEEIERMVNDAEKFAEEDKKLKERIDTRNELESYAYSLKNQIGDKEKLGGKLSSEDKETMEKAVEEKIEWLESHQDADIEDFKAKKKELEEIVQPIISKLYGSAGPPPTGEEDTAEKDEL
Description: (§1) To characterize the binding properties of the antibodies described in Example 1 for GRP78, epitope mapping analysis was carried out by alanine scanning mutagenesis. An alanine scanning library of GRP78 was constructed. Each anti-GRP78 antibody was then screened for binding to each individual GRP78 variant, allowing identification of the target protein residues involved in antibody binding.
(§2) Binding of each test antibody to each GRP78 variant in the alanine scanning library was determined by high-throughput flow cytometry under high stringency conditions (e.g., increased pH, increased salinity, increased temperature and/or increased wash time). Also included in the experiment was a commercially-available monoclonal antibody, 1H11-1H7, which was verified to bind to the wildtype (WT) GRP78 on cells and thus determined to be a suitable positive control under these conditions (Thermo Fisher Scientific, Waltham, MA). Antibody binding to each of the GRP78 variants as measured by the fluorescence signal (raw fluorescence data minus the background), was normalized to its binding to the WT GRP78. For each GRP78 variant, such normalized binding to the test antibodies was plotted relative to that to the control antibody.

[2] = biological target: T2, GRP78 alanine scanning variant R261A (human, UniProt P11021 19-654)
T2 construct: Member of the alanine scanning library of GRP78
T2 sequence (P11021 19-654 R261A limits assumed): as the sequence (P11021 19-654 E329A limits assumed) above, with R243A, A311E counted along it
Description: as §1, §2

[3] = biological target: T3, GRP78 alanine scanning variant H265A (human, UniProt P11021 19-654)
T3 construct: Member of the alanine scanning library of GRP78
T3 sequence (P11021 19-654 H265A limits assumed): as the sequence (P11021 19-654 E329A limits assumed) above, with H247A, A311E counted along it
Description: as §1, §2

[4] = biological target: T4, GRP78 alanine scanning variant R279A (human, UniProt P11021 19-654)
T4 construct: Member of the alanine scanning library of GRP78
T4 sequence (P11021 19-654 R279A limits assumed): as the sequence (P11021 19-654 E329A limits assumed) above, with R261A, A311E counted along it
Description: as §1, §2

% binding normalized to WT GRP78 [1] [%] | % binding normalized to WT GRP78 [2] [%] | % binding normalized to WT GRP78 [3] [%] | % binding normalized to WT GRP78 [4] [%] | Binder
< 20 | < 20 | < 20 |  | B1
 | < 20 |  | < 20 | B2
